Assay results taken from patent US20180273941A1 (UNIVERSITY OF MARYLAND BALTIMORE, published 2018).

Target: T1, wild-type human moesin (Moesin-WT) (human, UniProt P26038 2-577, pulled down with the anti-p-ERM antibody, i.e. the form with phosphorylated C-terminal threonine (Thr558 for moesin, as the filing names the site in paragraph 193))
T1 construct: also called pCDNA3-Moesin WT; wild type moesin
Test: anti-p-ERM IP and Western blot, transfected H522 cells
Excerpt: Both plasmids produce high levels of moesin proteins in the transfected cells (FIG. 5d).
Because p-ERM functions primarily through binding to F-actin and EBP50 (ERM-binding phosphoprotein 50) through their C-ERMAD and TERM domain (Fouassier, L., Yun, C. C., Fitz, J. G.& Doctor, R. B. Evidence for ezrin-radixin-moesin-binding phosphoprotein 50 (EBP50) self-association through PDZ-PDZ interactions. J Biol Chem. 275, 25039-25045 (2000); Turunen, O., Wahlström, T. & Vaheri, A. Ezrin has a COOH-terminal actin-binding site that is conserved in the ezrin protein family. J Cell Biol. 126, 1445-1453 (1994); Bretscher, A. et al. ERM-Merlin and EBP50 protein families in plasma membrane organization and function.

T1 sequence (P26038 2-577 limits assumed): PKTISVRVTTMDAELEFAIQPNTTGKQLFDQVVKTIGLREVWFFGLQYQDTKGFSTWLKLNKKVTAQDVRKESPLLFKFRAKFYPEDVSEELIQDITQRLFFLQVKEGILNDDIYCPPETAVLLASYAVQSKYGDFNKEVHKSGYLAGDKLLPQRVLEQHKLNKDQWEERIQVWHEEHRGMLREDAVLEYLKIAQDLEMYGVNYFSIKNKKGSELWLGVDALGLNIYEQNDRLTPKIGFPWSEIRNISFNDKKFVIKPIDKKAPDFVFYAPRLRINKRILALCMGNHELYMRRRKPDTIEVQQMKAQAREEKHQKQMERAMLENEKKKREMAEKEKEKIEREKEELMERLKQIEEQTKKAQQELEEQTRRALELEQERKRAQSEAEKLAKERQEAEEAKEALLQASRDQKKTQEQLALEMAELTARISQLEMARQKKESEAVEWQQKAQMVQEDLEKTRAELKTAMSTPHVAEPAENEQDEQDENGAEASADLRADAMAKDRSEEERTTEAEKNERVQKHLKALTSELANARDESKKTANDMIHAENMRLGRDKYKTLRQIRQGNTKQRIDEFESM

- binding result: binds
B1: ERM-binding phosphoprotein 50 (EBP50) (other, UniProt O14745 2-358, looked up)
chain: SADAAAGAPLPRLCCLEKGPNGYGFHLHGEKGKLGQYIRLVEPGSPAEKAGLLAGDRLVEVNGENVEKETHQQVVSRIRAALNAVRLLVVDPETDEQLQKLGVQVREELLRAQEAPGQAEPPAAAEVQGAGNENEPREADKSHPEQRELRPRLCTMKKGPSGYGFNLHSDKSKPGQFIRSVDPDSPAEASGLRAQDRIVEVNGVCMEGKQHGDVVSAIRAGGDETKLLVVDRETDEFFKKCRVIPSQEHLNGPLPVPFTNGEIQKENSREALAEAALESPRPALVRSASSDTSEELNSQDSPPKQDSTAPSSTSSSDPILDFNISLAMAKERAHQKRSSKRAPQMDWSKKNELFSNL
notes: Endogenous protein detected by Western blot (anti-EBP50, Clone 6/EBP50) in anti-p-ERM IP products
